From the supplement of paper PMC7877785
± gives the uncertainty stated by the source.

Test: self-splicing fitness, log relative to wild type (ln ratio); higher = more splicing; Tetrahymena group I intron in knt gene, E. coli kanamycin selection, DiMSum; sequences stand for … in CUCUCU…GGAGGGAAAAGUUAUCAGGCAUGCACCUGGUAGCUAGUCUUUAAACCAAUAGAUUGCAUCGGUUUAAAAGGCAAGACCGUCAAAUUGCGGGAAAGGGGUCAACAGCCGUUCAGUACCAAGUCUCAGGGGAAACUUUGAGAUGGCCUUGCAAAGGGUAUGGUAAUAAGCUGACGGACAUGGUCCUAACCACGCAGCCAAGUCCUAAGUCAACAGAUCUUCUGUUGAUAUGGAUGCAGUUCACAGACUAAAUGUCGGUCGGGGAAGAUGUAUUCUUCUCAUAAGAUAUAGUCGGACCUCUCCUUAAUGGGAGCUAGCGGAUGAAGUGAUGCAACACUGGAGCCGCUGGGAACUAAUUUGUAUGCGAAAGUAUAUUGAUUAGUUUUGGAGUACUCGUGGUCG
In short: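 DiMSum derived fitness as the error-weighted combination of fold changes across replicates, kanamycin versus no kanamycin, normalised to wild type. E. coli BL21(DE3) held the library, which randomised all eight P1ex-region intron nucleotides within the knt kanamycin-resistance gene on pET-22b(+). Six replicate transformations grew overnight at 37°C or 30°C on LB agar with or without 25 μg/mL kanamycin, also containing 100 μg/mL carbenicillin, 50 μM IPTG and 0.2% rhamnose, and pooled colonies were amplicon-sequenced on an Illumina HiSeq 2500.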

Sequence | self-splicing fitness (ln) (30 °C) | self-splicing fitness (ln) (37 °C)
CCGAAGCAAUAUUACGGUGC | -3.26 ± 0.3 | -2.26 ± 0.39
CCGAAGCAAUAUUACGUGAA | -3.64 ± 0.16 | -2.82 ± 0.14
CCGAAGCAAUAUUACGUGCC | -2.83 ± 0.29 | -2.64 ± 0.44
CCGAAGCAAUAUUACGUGUA | -4.03 ± 0.22 | -2.81 ± 0.19
CCGAAGCAAUAUUACGUUCC | -3.94 ± 0.37 | -2.81 ± 0.37
CCGCAGCAAUAUUACGACUU | -3.51 ± 0.35 | -1.68 ± 0.32
CCGCAGCAAUAUUACGAGAG | -2.62 ± 0.084 | -1.56 ± 0.082
CCGCAGCAAUAUUACGAGCA | -3.01 ± 0.38 | -3.24 ± 0.47
CCGCAGCAAUAUUACGCACU | -2.9 ± 0.19 | -2.51 ± 0.24
CCGCAGCAAUAUUACGCAUG | -2.91 ± 0.1 | -0.661 ± 0.076
CCGCAGCAAUAUUACGCCAA | -3.73 ± 0.38 | -2.06 ± 0.34
CCGCAGCAAUAUUACGCCCA |  | -2.55 ± 0.31
CCGCAGCAAUAUUACGCGCA | -3.08 ± 0.27 | -1.41 ± 0.16
CCGCAGCAAUAUUACGCGUA | -2.58 ± 0.16 | -0.978 ± 0.11
CCGCAGCAAUAUUACGCUCU | -4.04 ± 0.42 | -2.18 ± 0.2
CCGCAGCAAUAUUACGCUGG | -2.24 ± 0.11 | -2.92 ± 0.24
CCGCAGCAAUAUUACGCUGU | -3.3 ± 0.36 | -2.85 ± 0.23
CCGCAGCAAUAUUACGCUUU | -3.86 ± 0.18 | -2.97 ± 0.18
CCGCAGCAAUAUUACGGAAC | -3.52 ± 0.41 | -3.41 ± 0.29
CCGCAGCAAUAUUACGGAGC | -3.52 ± 0.14 | -2.48 ± 0.18
CCGCAGCAAUAUUACGGAGU | -4.11 ± 0.21 | -3.01 ± 0.23
CCGCAGCAAUAUUACGGCUA | -3.46 ± 0.23 | -2.61 ± 0.22
CCGCAGCAAUAUUACGGCUU | -4.44 ± 0.27 | -2.45 ± 0.21
CCGCAGCAAUAUUACGGGAC | -4.12 ± 0.46 | -2.65 ± 0.29
CCGCAGCAAUAUUACGGGAG | -3.26 ± 0.16 | -3.06 ± 0.24
CCGCAGCAAUAUUACGGGCU | -3.56 ± 0.18 | -3.05 ± 0.22

Sequence | self-splicing fitness (ln) (30 °C) | self-splicing fitness (ln) (37 °C)
CCGCAGCAAUAUUACGGUUC | -3.51 ± 0.28 | -3.67 ± 0.37
CCGCAGCAAUAUUACGUGGG | -3.41 ± 0.12 | -3.02 ± 0.17
CCGCAGCAAUAUUACGUUAA | -3.03 ± 0.18 | -2.1 ± 0.2
CCGCAGCAAUAUUACGUUUG | -1.62 ± 0.065 | -1.36 ± 0.096
CCGGAGCAAUAUUACGAAUC | -4.01 ± 0.46 | 
CCGGAGCAAUAUUACGACCG | -1.71 ± 0.5 | 
CCGGAGCAAUAUUACGCAAU | -2.59 ± 0.36 | 
CCGGAGCAAUAUUACGCCAG | -3.49 ± 0.2 | -2.31 ± 0.24
CCGGAGCAAUAUUACGCCGA | -3.86 ± 0.41 | 
CCGGAGCAAUAUUACGCGCU | -1.24 ± 0.17 | 
CCGGAGCAAUAUUACGCGUC |  | -2.18 ± 0.39
CCGGAGCAAUAUUACGGGGG | -3.5 ± 0.2 | -1.83 ± 0.17
CCGGAGCAAUAUUACGGGGU | -3.59 ± 0.2 | -2.93 ± 0.26
CCGGAGCAAUAUUACGGUUA | -2.44 ± 0.35 | -2.64 ± 0.48
CCGGAGCAAUAUUACGGUUG | -1.16 ± 0.14 | -1.25 ± 0.16
CCGGAGCAAUAUUACGUAAA | -3.29 ± 0.25 | -2.09 ± 0.47
CCGGAGCAAUAUUACGUAAC | -2.38 ± 0.38 | -1.45 ± 0.43
CCGGAGCAAUAUUACGUGAU | -2.17 ± 0.19 | -1.54 ± 0.3
CCGGAGCAAUAUUACGUUCA | -1.23 ± 0.17 | -1.63 ± 0.29
CCGUAGCAAUAUUACGAACG | -1.07 ± 0.12 | -0.439 ± 0.15
CCGUAGCAAUAUUACGAAUU | -3.75 ± 0.25 | -2.85 ± 0.34
CCGUAGCAAUAUUACGAGUC | -2.86 ± 0.23 | 
CCGUAGCAAUAUUACGAUAC | -3.22 ± 0.24 | 
CCGUAGCAAUAUUACGAUCU |  | -2.46 ± 0.45
CCGUAGCAAUAUUACGAUGU | -4.42 ± 0.33 | -1.79 ± 0.18
